# Experimental data reported in paper PMC10140343.
# Molecular target: recombinant ScCD8α extracellular IgSF V domain (Ser20-Met163) (small-spotted catshark (Scyliorhinus canicula))
# Test: native gel or EMSA; PAGE under non-reducing conditions of purified recombinant ScCD8α; Tris-Gly buffer pH 4.4, ice-water bath, 120 V, 2 h; band of approx. 32 kDa against approx. 16 kDa in reducing SDS-PAGE
substance,measurement,value
recombinant ScCD8α extracellular IgSF V domain (Ser20-Met163) (domain or fragment),stoichiometry N,2
